Blank lines part the entries; values can stand above or below the sequence they belong to.
Tests used:
[1] = molecular target: HLA-B*40:01; experiment: IEDB peptide-MHC binding, purified MHC/competitive/radioactivity; filed as Kd, often an IC50 or EC50 that approximates it; ≥ and ≤ were set here for values at or beyond the usual limits of such assays
[2] = molecular target: HLA-B*44:02; experiment: as above
[3] = molecular target: HLA-B*44:03; experiment: as above
[4] = molecular target: HLA-A*02:01; experiment: IEDB peptide-MHC binding, purified MHC/competitive/fluorescence; filed as Kd, often an IC50 or EC50 that approximates it; ≥ and ≤ were set here for values at or beyond the usual limits of such assays
[5] = molecular target: HLA-B*15:01; experiment: IEDB peptide-MHC binding, purified MHC/competitive/radioactivity; filed as Kd, often an IC50 or EC50 that approximates it; ≥ and ≤ were set here for values at or beyond the usual limits of such assays
[6] = molecular target: HLA-A*01:01; experiment: as above
[7] = molecular target: HLA-B*08:01; experiment: as above
[8] = molecular target: HLA-A*30:01; experiment: as above
[9] = molecular target: HLA-A*26:01; experiment: as above
[10] = molecular target: HLA-A*32:01; experiment: as above; conditions: source organism: Mammarenavirus brazilense
[11] = molecular target: HLA-A*30:02; experiment: as above
[12] = molecular target: HLA-A*29:02; experiment: as above; conditions: source organism: Mammarenavirus brazilense
[13] = molecular target: HLA-A*02:06; experiment: as above; conditions: source organism: Homo sapiens
[14] = molecular target: HLA-A*02:02; experiment: as above; conditions: source organism: Homo sapiens
[15] = molecular target: HLA-A*02:03; experiment: as above; conditions: source organism: Homo sapiens
[16] = molecular target: HLA-A*02:01; experiment: as above
[17] = molecular target: HLA-A*24:02; experiment: IEDB peptide-MHC binding, purified MHC/competitive/fluorescence; ≥ and ≤ were set here for values at or beyond the usual limits of such assays
[18] = molecular target: HLA-A*02:01; experiment: as above
[19] = molecular target: HLA-A*31:01; experiment: IEDB peptide-MHC binding, purified MHC/direct/fluorescence; filed as Kd, often an IC50 or EC50 that approximates it; ≥ and ≤ were set here for values at or beyond the usual limits of such assays; conditions: source organism: Brucella melitensis
[20] = molecular target: HLA-A*03:01; experiment: as above; conditions: source organism: Brucella melitensis
[21] = source organism: Dengue virus 2 Jamaica/1409/1983
[22] = source organism: Vaccinia virus
[23] = source organism: Dengue virus 4 Philippines/H241/1956
[24] = source organism: Dengue virus 1 Brazil/97-11/1997
[25] = source organism: Dengue virus 1 Singapore/S275/1990
[26] = source organism: Vaccinia virus WR
[27] = source organism: Dengue virus 3 Martinique/1243/1999
[28] = source organism: Mammarenavirus brazilense
[29] = source organism: Dengue virus 4 Dominica/814669/1981
[30] = source organism: Sudan ebolavirus
[31] = source organism: Zaire ebolavirus

Sequence: MEEALRGLPI
Kd [1, 21]: 54.2 nM | Kd [2, 21]: 29.3 nM | Kd [3, 21]: 1110 nM

Sequence: KLFSDISAI
Kd [4, 22]: 2.2 nM

Sequence: YLKEEQDQQY
Kd [5, 23]: 7.59 nM | Kd [6, 23]: 15600 nM

Sequence: SEFNTYKRSG
Kd [1, 24]: 8760 nM | Kd [2, 24]: 2170 nM | Kd [3, 24]: 7050 nM

Sequence: IMAVGIVSIL
Kd [5, 25]: 8.03 nM | Kd [7, 25]: 173 nM

Sequence: KGKRALAPPV
Kd [8, 23]: 2.27 nM

Sequence: EEEEQTLTI
Kd [1, 21]: 103 nM

Sequence: ISRNKNIFV
Kd [8, 26]: 7.28 nM

Sequence: TFKKSGAIK
Kd [8, 27]: 1200 nM

Sequence: KTLHSSVQSY
Kd [9, 28]: ≥ 36800 nM | Kd [10]: 527 nM | Kd [8, 28]: 573 nM | Kd [6, 28]: 4920 nM | Kd [11, 28]: 73.5 nM | Kd [12]: 6180 nM

Kd [13]: ≥ 78700 nM | Kd [14]: 16400 nM | Kd [15]: 13600 nM | Kd ([16]; source organism: Homo sapiens): ≥ 24300 nM
Sequence: DLEDLKDQI

Sequence: VVKATYLLK
Kd [8, 26]: 0.32 nM

Sequence: YIRFRKNHI
Kd [5, 26]: 1010 nM | Kd [7, 26]: 1.44 nM

Sequence: KEISSMLNIM
Kd [1, 24]: 11.1 nM

Sequence: AEIPLQWIAS
Kd [1, 27]: 2240 nM | Kd [2, 27]: 200 nM

Sequence: AENTNSVTNI
Kd [1, 29]: 461 nM | Kd [2, 29]: 130 nM | Kd [3, 29]: 372 nM

Sequence: LDRPHTPQF
IC50 [17, 30]: 23800 nM

Sequence: GLLEAGNSL
Kd [4, 26]: 3.2 nM

Sequence: NLNVTTQSI
IC50 [17, 22]: 11100 nM | IC50 [18, 22]: 44700 nM

Sequence: LKKNKAIKIL
Kd [7, 23]: 11000 nM

Sequence: AWQSVGHMM
IC50 [17, 31]: 34700 nM | IC50 [18, 31]: ≥ 180000 nM

Sequence: IHQGMHMVA
IC50 [17, 31]: ≥ 185000 nM | IC50 [18, 31]: ≥ 84700 nM

Sequence: LMNKENAEM
Kd [5, 26]: 7.7 nM

Sequence: PLGLVDLFV
Kd ([16]; source organism: Lassa virus Josiah): 4170 nM

Sequence: RILFRKPSL
Kd [7, 26]: 32.2 nM

Sequence: IYRGTTFAE
IC50 [17, 31]: 9880 nM

Sequence: RVRISLIYL
Kd [8, 26]: 0.0915 nM

Sequence: HKQWFLDLPL
Kd [7, 24]: 57 nM

Sequence: CINGVCWTA
Kd ([16]; source organism: hepatitis C virus genotype 1a): 2700 nM

Sequence: CTREEFISK
Kd [8, 23]: 21.1 nM

Kd ([16]; source organism: Homo sapiens): 527 nM
Sequence: VLENFTILLV

Sequence: GQITWRDMAH
Kd [5, 27]: 153 nM

Sequence: EQMAPHHKIL
Kd [7, 23]: 59.7 nM

Sequence: MVCPNINAF
Kd [5, 26]: 22 nM

Sequence: KSKNINIEV
Kd [8, 26]: 0.324 nM

Sequence: LVYKKMQSY
Kd [5, 26]: 45.7 nM

Sequence: RVRIPDVAR
Kd [19]: 23.4 nM | Kd [20]: 293 nM

Sequence: HTAEAGGRAY
Kd [9, 21]: 24.6 nM | Kd [5, 21]: 115 nM | Kd [6, 21]: ≥ 70400 nM | Kd [11, 21]: 25.1 nM

Kd ([4]; source organism: Escherichia coli O139:H28 str. E24377A): 3.4 nM
Sequence: ALAWSLQML

Sequence: RFTPQFLLQ
IC50 [17, 31]: 4080 nM

Sequence: YLKKKNHPL
Kd ([4]; source organism: Bacillus cereus G9241): 6 nM

Sequence: ATGKCNPNL
IC50 [17, 30]: ≥ 142000 nM | IC50 [18, 30]: 12300 nM

Sequence: NIMPLFPTF
Kd [7, 26]: 48.1 nM

Sequence: ETWILRHPGF
Kd [9, 21]: 1380 nM | Kd [8, 21]: 12300 nM

Sequence: YIKFIFLQM
Kd [5, 26]: 1350 nM | Kd [7, 26]: 8.58 nM

Sequence: SLNLRIKIL
Kd [7, 26]: 92 nM

— the Immune Epitope Database (IEDB)
